Laboratory results as given in publication PMC9130567.

Biological target: Human properdin (factor P) (human) (UniProt P27918)
Experiment: SPR; FP immobilised by amine coupling to 79.55 RU; FXI or FXIa injected by OneStep gradient, maximum 50 nM, 30 uL/min, dissociation 300 s; Pall/ForteBio Pioneer; run in triplicate

Chain of UniProt P27918 (P27918 28-469): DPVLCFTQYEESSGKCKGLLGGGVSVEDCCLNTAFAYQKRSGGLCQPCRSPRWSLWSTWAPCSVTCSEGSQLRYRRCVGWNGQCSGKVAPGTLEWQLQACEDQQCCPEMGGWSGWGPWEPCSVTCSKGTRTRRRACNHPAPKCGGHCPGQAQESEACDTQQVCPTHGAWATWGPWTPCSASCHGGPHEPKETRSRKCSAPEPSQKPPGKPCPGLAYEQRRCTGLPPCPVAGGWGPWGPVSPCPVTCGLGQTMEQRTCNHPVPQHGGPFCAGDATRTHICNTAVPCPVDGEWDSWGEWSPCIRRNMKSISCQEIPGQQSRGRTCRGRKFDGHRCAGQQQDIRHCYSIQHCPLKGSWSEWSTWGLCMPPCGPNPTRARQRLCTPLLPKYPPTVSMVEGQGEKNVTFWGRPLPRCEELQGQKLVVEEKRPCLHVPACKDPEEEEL

Row | Substance | Kd
1 | Human activated coagulation factor XI (preactivated by FXIIa) (enzyme) | 0.35 nM
2 | Human coagulation factor XI zymogen (natural protein) | 16.1 nM
